Results as given in article PMC9328677.

B1: truncated APLF^AD construct corresponding to residues 449 to 490 (APLF^AD-Δ) [Homo sapiens] / stoichiometric mixture of full-length Drosophila melanogaster -H2B and H3-H4 (octamer-mix) [Drosophila … (parent)
chain 1: GLDEDNDNVGQPNEYDLNDSFLDDEEEDYEPTDEDSDWEPGKE
chain 2: not shown
chain 3: not shown
chain 4: not shown
chain 5: not shown

Variants of: B1
Experiment: ITC
Conditions: with stoichiometric mixture of full-length Drosophila melanogaster H2A-H2B and H3-H4 (octamer-mix) [Drosophila melanogaster]

Row | Variant | Kd
1 | chain 1 Y15A F21A Y29A W38A | 1220 nM
